Results reported in paper PMC6864339.
Read-outs that look alike come from different tables or passages of the source.

Experiments:
Insulin [1] = experiment: BLI
Insulin [2] = experiment: BLI; remark: listed apart in the source

B1: Recombinant mouse secretagogin (SCGN) (natural protein)
chain: MDNARRKTPARLDAACFWQIWQRFDKEEKGYIRETELDAFFDHLLAKSGTEDTLMEENVQKVKEQLMTSHNVSKEGRILMKELASMFLSEDENFLLFFRLETPLDNSVEFMQIWRKYDADSSGFISAAELCNFLRDLFLHHKKNISEAELEEYTSTMMKIFDKNKDGRLDLNDLARILALQENFLLQFKMDASSTEERKRDFEKIFAHYDVSKTGALEGPEVDGFVKDMMELVQPSISGVDLDKFREILLRHCDVNKDGKIQKSELALCLGLKINP
How did the Kd (Insulin [1]) turn out when B1 was run?
Its Kd is 1.8 µM.

What about the koff (Insulin [1]) of the same binder?
Its koff is 0.001 s⁻¹.

And the kon (Insulin [1])?
The kon was 720 M⁻¹ s⁻¹.

What about the Kd (Insulin [2]) of the same binder?
Its Kd is 1.4 µM.

What about the koff (Insulin [2]) of the same binder?
Its koff is 0.0006 s⁻¹.
